Laboratory results: US20060019338A1

Tests used:
[1] = molecular target: squirrel monkey prokineticin receptor 2 (PKR2) (squirrel monkey); assay: cell-based or functional assay
[2] = molecular target: rhesus monkey prokineticin receptor 1 (PKR1) (rhesus monkey); assay: cell-based or functional assay

Row | Substance | calcium mobilization (aequorin luminescence) EC50 [1] [µM] | calcium mobilization (aequorin luminescence) EC50 [2] [µM]
1 | recombinant human PK1 (from UniProt P58294 20-105) (ligand) | 0.01 | –
2 | recombinant human PK2 (from UniProt Q9HC23 28-129) (ligand) | – | 0.01
